# From patent US20250066499A1 (SUNSHINE GUOJIAN PHARMACEUTICAL SHANGHAI, published 2025)
# Read-outs that look alike come from different tables or passages of the source.
# T1: human CD73-His protein (human, UniProt P21589 27-549)
# T1 construct: Expressed in HEK-293F with a signal peptide that is not specified; In the ELISAs it was biotinylated with EZ-Link NHS-Biotin (CD73-biotin) and captured on streptavidin; in SPR and the enzyme assay it was used as CD73-His; also called CD73-his antigen; CD73-biotin
# T1 sequence: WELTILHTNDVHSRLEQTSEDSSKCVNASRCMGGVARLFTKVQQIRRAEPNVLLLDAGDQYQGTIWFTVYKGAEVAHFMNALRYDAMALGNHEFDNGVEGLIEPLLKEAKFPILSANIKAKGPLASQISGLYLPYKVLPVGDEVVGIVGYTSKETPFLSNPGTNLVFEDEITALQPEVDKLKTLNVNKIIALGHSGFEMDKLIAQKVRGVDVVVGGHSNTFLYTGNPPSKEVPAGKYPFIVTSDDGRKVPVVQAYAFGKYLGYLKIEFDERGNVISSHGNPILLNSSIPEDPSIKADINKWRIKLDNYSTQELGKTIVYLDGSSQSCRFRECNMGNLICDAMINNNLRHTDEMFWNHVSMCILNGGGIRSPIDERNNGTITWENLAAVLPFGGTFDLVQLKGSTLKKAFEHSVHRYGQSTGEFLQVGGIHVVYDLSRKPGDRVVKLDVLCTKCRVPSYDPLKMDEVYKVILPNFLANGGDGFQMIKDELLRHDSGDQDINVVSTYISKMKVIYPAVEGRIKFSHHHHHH
# T2: CD73 protein on the surface of tumor cells (human, UniProt P21589 27-549)
# T2 sequence (looked up): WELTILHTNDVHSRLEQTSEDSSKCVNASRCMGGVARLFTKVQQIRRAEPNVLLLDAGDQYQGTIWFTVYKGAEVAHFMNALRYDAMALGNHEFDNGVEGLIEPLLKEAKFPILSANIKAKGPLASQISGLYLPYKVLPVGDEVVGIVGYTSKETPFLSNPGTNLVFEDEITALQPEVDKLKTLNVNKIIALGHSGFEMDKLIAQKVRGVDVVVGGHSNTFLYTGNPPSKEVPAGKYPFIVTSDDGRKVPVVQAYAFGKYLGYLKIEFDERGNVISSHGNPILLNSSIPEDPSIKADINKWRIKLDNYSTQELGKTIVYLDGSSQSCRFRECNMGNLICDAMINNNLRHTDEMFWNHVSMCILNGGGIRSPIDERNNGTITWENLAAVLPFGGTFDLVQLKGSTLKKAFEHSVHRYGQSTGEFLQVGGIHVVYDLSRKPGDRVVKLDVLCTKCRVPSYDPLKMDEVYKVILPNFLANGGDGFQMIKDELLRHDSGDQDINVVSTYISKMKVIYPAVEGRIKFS
# Legend:
# [1] = target: T1, human CD73-His protein; experiment: ELISA, biotinylated CD73-His on streptavidin plate
# Method: (§1) The ELISA plates were coated with SA protein diluted to 1.5 μg/mL in coating buffer (50 mM carbonate coating buffer, pH 9.6) and incubated overnight at 4° C. The supernatant was discarded, and the plates were washed three times with PBST. Then, 5% skimmed milk powder prepared with PBS was added for blocking and the plates were incubated for 2 h at 37° C. After washing the plates once with PBST, CD73-biotin protein (prepared by biotinylating CD73-His protein according to the EZ-Link NHS-Biotin Reagent instructions) was diluted to 0.5 μg/mL and added at 100 μL/well for incubation at room temperature for 1 h. The plates were washed three times with PBST, and the prepared murine-derived monoclonal antibodies against human CD73 were serially diluted with 1% BSA buffer prepared with PBST and added to the ELISA plates at 100 μl/well. The plates were incubated at 37° C. for 1 h. After washing the plates three times with PBST, HRP-labeled goat anti-mouse IgG secondary antibody was added and the plates were incubated for 30 min at 37° C. After washing the plates three times with PBST, the residual droplets were patted dry on absorbent paper as much as possible. Then, 100 μl of TMB color developing solution was added to each well, and the plates were incubated in the dark at room temperature for 5 min for color development. Subsequently, 50 μl of 2M H₂SO₄ stop solution was added to each well to terminate the substrate reaction. The OD values were read at 450 nm using a multimode microplate reader to analyze the binding ability of the tested antibodies to the target antigen human CD73-His.
# [2] = target: T2, CD73 protein on the surface of tumor …; experiment: cell-based or functional assay
# [3] = target: T1, human CD73-His protein; experiment: ELISA, biotinylated CD73-His on streptavidin plate; remark: listed apart in the source
# Method: as §1
# The binding affinity of various humanized antibodies to human CD73-his protein was measured with reference to Example 3.
# [4] = target: T1, human CD73-His protein; experiment: cell-based or functional assay
Binder,EC50 [1],"IC50 (ng/mL), inhibition of CD73 enzyme activity on H1975 cells (AMP/ATP, Cell Titer-Glo) [2] [ng/mL]",EC50 [3] [nM],"IC50 (nM), inhibition of enzyme activity of soluble CD73-His (AMP/ATP, Cell Titer-Glo) [4] [nM]"
"48A11-ch (antibody, human IgG4 S228P, kappa, V domains shown, Chimeric: murine variable regions spliced with human IgG4 (S228P) and human kappa constant regions; also called chimeric antibody 48A11-ch) VH: QVQLQQPGAELVKPGASVKLSCKASGYTFTSYWMHWVKQRPGQGLEWIGEINPSIGRTNYNEKFKSKATLTVDKSSSTAFMQLSSLTSEDSAVYYCARRVYGTMDYWGQGTSVTVSS VL: DIKMTQSPSSMYASLGERVTITCKASQDINSYLSWFQQKPGKSPKTLIYRANIWVDGVPSRFSGSGSGQDYSLTISSLEYEDMGIYYCLQYDELYTFGGGTKLEIKR",0.067 nM,–,0.058,–
"56B10-HuV23 (antibody, human IgG4, V domains shown, Humanized) VH: QVQLVQSGAEVKKPGASVKVSCKTSGYTFTRYYIYWVRQAPGQGLEWIGWIYPGNFNTKYNEKFKGRATLTADTSASTAYMELSSLRSEDTAVYYCARDVYDYAGFAYWGQGTLVTVSS VL: DIQMTQSPSFLSASVGDRVTITCKASQGVATAVAWYQQKPGKSPKLLIYWASTRHTGVPSRFSGSGSGTEFTLTISSLQPEDFATYFCQQYSSYPWTFGQGTKVEIK",–,–,0.107,–
"56B10 (antibody, V domains shown, Murine hybridoma antibody; also called murine-derived antibody 56B10) VH: QVQLQQSGPELVKPGASVRISCKTSGYTFTRYYIYWVKQRPGQGLEWIGWIYPGNFNTKYNEKFKGKATLTADTSSSTAYMQLSSLTSEDSAVYFCARDVYDYAGFAYWGQGTLVTVSA VL: DIVMTQSHRFLSTSVGDRVSITCKASQGVATAVAWYQQKPGQSPKLLIYWASTRHTGVPDRFTGSGSGTDFTLTISNVQSEDLADYFCQQYSSYPWTFGGGTKLEIK",0.0269 µg/mL,20.7,–,–
"48A11-HuV23 (antibody, human IgG4, V domains shown, Humanized) VH: QVQLVQSGAEVKKPGASVKVSCKASGYTFTSYWMHWVRQAPGQGLEWIGEINPSIGRTNYNEKFKSRATLTVDKSTSTAYMELSSLRSEDTAVYYCARRVYGTMDYWGQGTLVTVSS VL: DIQMTQSPSSLSASVGDRVTITCKASQDINSYLSWFQQKPGKSPKLLIYRANIWVDGVPSRFSGSGSGQDYTFTISSLQPEDIATYYCLQYDELYTFGQGTKVEIK",–,–,0.081,–
"48A11-HuV22 (antibody, human IgG4, V domains shown, Humanized) VH: QVQLVQSGAEVKKPGASVKVSCKASGYTFTSYWMHWVRQAPGQGLEWIGEINPSIGRTNYNEKFKSRATLTVDKSTSTAYMELSSLRSEDTAVYYCARRVYGTMDYWGQGTLVTVSS VL: DIQMTQSPSSLSASVGDRVTITCKASQDINSYLSWFQQKPGKSPKTLIYRANIWVDGVPSRFSGSGSGQDYTFTISSLQPEDIATYYCLQYDELYTFGQGTKVEIK",–,–,0.093,9.02

# The remaining lines, values ahead:
EC50 [1],"IC50 (ng/mL), inhibition of CD73 enzyme activity on H1975 cells (AMP/ATP, Cell Titer-Glo) [2] [ng/mL]",EC50 [3] [nM],"IC50 (nM), inhibition of enzyme activity of soluble CD73-His (AMP/ATP, Cell Titer-Glo) [4] [nM]",Binder
0.0197 µg/mL,17,–,–,"48A11 (antibody, V domains shown, Murine hybridoma antibody; also called murine-derived antibody 48A11) VH: QVQLQQPGAELVKPGASVKLSCKASGYTFTSYWMHWVKQRPGQGLEWIGEINPSIGRTNYNEKFKSKATLTVDKSSSTAFMQLSSLTSEDSAVYYCARRVYGTMDYWGQGTSVTVSS VL: DIKMTQSPSSMYASLGERVTITCKASQDINSYLSWFQQKPGKSPKTLIYRANIWVDGVPSRFSGSGSGQDYSLTISSLEYEDMGIYYCLQYDELYTFGGGTKLEIK"
–,–,0.11,–,"56B10-HuV21 (antibody, human IgG4, V domains shown, Humanized) VH: QVQLVQSGAEVKKPGASVKVSCKTSGYTFTRYYIYWVRQAPGQGLEWIGWIYPGNFNTKYNEKFKGRATLTADTSASTAYMELSSLRSEDTAVYYCARDVYDYAGFAYWGQGTLVTVSS VL: DIQLTQSPSFLSASVGDRVTITCKASQGVATAVAWYQQKPGQSPKLLIYWASTRHTGVPDRFSGSGSGTEFTLTISSLQPEDFATYYCQQYSSYPWTFGQGTKVEIK"
–,–,0.105,–,"56B10-HuV32 (antibody, human IgG4, V domains shown, Humanized) VH: QVQLQQSGAEVKKPGASVKVSCKASGYTFTRYYIYWVRQRPGQGLEWIGWIYPGNFNTKYNEKFKGRATLTADTSASTAYMELSSLTSEDTAVYYCARDVYDYAGFAYWGQGTLVTVSS VL: DIQLTQSPSFLSASVGDRVTITCKASQGVATAVAWYQQKPGKAPKLLIYWASTRHTGVPSRFSGSGSGTEFTLTISSLQPEDFATYYCQQYSSYPWTFGQGTKVEIK"
–,–,0.112,4.13,"56B10-HuV33 (antibody, human IgG4, V domains shown, Humanized) VH: QVQLQQSGAEVKKPGASVKVSCKASGYTFTRYYIYWVRQRPGQGLEWIGWIYPGNFNTKYNEKFKGRATLTADTSASTAYMELSSLTSEDTAVYYCARDVYDYAGFAYWGQGTLVTVSS VL: DIQMTQSPSFLSASVGDRVTITCKASQGVATAVAWYQQKPGKSPKLLIYWASTRHTGVPSRFSGSGSGTEFTLTISSLQPEDFATYFCQQYSSYPWTFGQGTKVEIK"
0.09 nM,–,0.07,–,"56B10-ch (antibody, human IgG4 S228P, kappa, V domains shown, Chimeric: murine variable regions spliced with human IgG4 (S228P) and human kappa constant regions; also called chimeric antibody 56B10-ch) VH: QVQLQQSGPELVKPGASVRISCKTSGYTFTRYYIYWVKQRPGQGLEWIGWIYPGNFNTKYNEKFKGKATLTADTSSSTAYMQLSSLTSEDSAVYFCARDVYDYAGFAYWGQGTLVTVSA VL: DIVMTQSHRFLSTSVGDRVSITCKASQGVATAVAWYQQKPGQSPKLLIYWASTRHTGVPDRFTGSGSGTDFTLTISNVQSEDLADYFCQQYSSYPWTFGGGTKLEIKR"
